B1: Zinc finger homeobox protein 4, residues 2562 to 2617; numbered along this chain, Q86UP3 (parent)
chain: RLRTTITPEQLEILYEKYLLDSNPTRKMLDHIAREVGLKKRVVQVWFQNTRARERK
B2: Nucleolar transcription factor 1, residues 408 to 469; numbered along this chain, P17480 (parent)
chain: KRPVSAMFIFSEEKRRQLQEERPELSESELTRLLARMWNDLSEKKKAKYKAREAALKAQSER

Variants of: B1
Assay: abundance fitness (aPCA) (normalised: wild type 0, dead -1); higher = more abundant; growth selection in yeast, the domain comes from the species named
Details: Homo sapiens

Abundance fitness of substitutions, site by site:
Q10: C -0.847
P8: F -0.038 | G -0.504 | S -0.413 | A 0.076 | L 0.167 | T -0.452 | I 0.043 | R -0.254 | Q -0.232 | H -0.422 | K -0.272 | W -0.177 | V 0.168 | E 0.197 | M -0.329 | Y -0.643 | C -0.54 | D -0.107
I6: P -0.056 | M 0.144 | T -0.584 | S -0.652 | R -0.983 | K -0.852 | Y 0.06 | H -0.202 | N -0.708 | D -0.759 | V -0.248 | A -0.266 | E -0.477 | G -0.264 | C -0.565 | L -0.196 | Q -0.761 | W -0.465
L2: A -0.059 | V -0.023 | G -0.132 | D 0.31 | M 0.024 | R -0.176 | S 0.161 | T 0.105 | K 0.24 | H -0.357 | W -0.421 | N 0.309 | E 0.429 | Q -0.603 | C -0.296 | I -0.115 | F 0.066
T4: G -0.052 | M -0.022 | D 0.304 | H -0.145 | Y -0.109 | V -0.179 | F -0.062 | Q -0.096 | K -0.408 | L -0.165 | C -0.209 | N -0.488 | R -0.63 | W -0.305 | P 0.037 | S -0.057
R1: C 0.24 | T -0.054 | A 0.743 | S 0.311 | N 0.002
T5: I 0.057 | E 0.141 | L -0.298 | S -0.068 | A -0.398 | Q 0.085 | P -0.032 | F -0.312 | N 0.265 | D 0.068 | W -0.397 | V 0.025 | K -0.332 | R -0.34 | M -0.241 | Y -0.252 | G -0.132
T7: C -0.258 | P -0.165 | M -0.321 | R -0.449 | N -0.238 | S -0.111 | K -0.55 | Y -0.436 | I -0.756 | G -0.155 | W -0.708 | E 0.259 | Q -0.295 | L -0.206 | V -0.196 | A 0.208
E9: N -0.141 | V -0.157 | F -0.399 | L -0.202 | T -0.105 | D 0.038 | P -0.178 | H -0.257 | R -0.005 | C -0.417 | M -0.171 | G -0.159 | Q -0.152 | A -0.069 | S -0.173 | Y -0.297
R3: P -0.004 | S 0.301 | T 0.359 | E 0.207 | M 0.182 | N 0.829 | V 0.132 | W -0.156 | A 0.119 | G 0.194 | D 0.68 | I 0.319 | K 0.288 | L -0.008 | Q 0.424 | F -0.02

Variants of: B2
Assay: as above
Details: Homo sapiens

Abundance fitness: each site, then its substitutions
R32: D -0.058 | K 0.021
P23: G -0.254 | R -0.252 | N -0.319
K45: D -0.052 | C -0.002
L30: N -0.303 | G -0.254 | H -0.232 | C -0.078 | M -0.043
L56: S 0.013 | M -0.145 | Y -0.085
T31: L -0.107 | Y -0.428
A6: Y -0.155 | W -0.453 | H -0.534
E29: H -0.223
E12: C -0.19 | L -0.182
L18: P -1.37 | Q -0.531 | M -0.108 | R -0.965

Reference: the Human Domainome abundance scans (Beltran et al. 2025)
